Here are results for six molecules from patent US8969060B2, “Modified glucose dehydrogenase” (Ikeda Food Research Co., Ltd., priority 2011, dated 2015).

Where “and” joins values, the source holds several entries; their conditions need not be identical. Equal entries are not always repeated.

B1: N287D + D343E + K494E: modified GLD: SEQ ID NO: 1 with substitutions N287D, D343E, K494E (protein, listed as Aspergillus terreus)
chain: MLGKLSFLSALSLAVAAPLSNSTSAKYDYIVIGGGTSGLAVANRLSEDPNVNVLILEAGGSVWNNPNVTNVDGYGLAFGSDIDWQYQSVNQPYGGNLSQVLRAGKALGGTSTINGMAYTRAEDVQIDAWETIGNTGWTWKNLFPYYRKSENFTVPTKSQTSLGASYEAGAHGHEGPLDVAFTQIESNNLTTYLNRTFQGMGLPWTEDVNGGKMRGFNLYPSTVNLEEYVREDAARAYYWPYKSRPNLHVLLNTFANRIVWDGEAHDGHITASGVEITSRNGTVRVIDAEKEVIVSAGALKSPAILELSGIGNPSVLDKHNIPVKVNLPTVGENLQDQVNSHMEASGNTSISGTKAVSYPDVYDVFGDEAESVAKQIRANLKQYAADTAKANGNIMKAADLERLFEVQYDLIFKGRVPIAEVLNYPGSATSVFAEFWALLPFARGSVHIGSSNPAEFPVINPNYFMLDWDAKSYVAVAKYIRRSFESYPLSSIVEESTPGYDVIPRNASEQSWKEWVFDKNYRSNFHPVGTAAMMPREIGGVVDERLNVYGTTNVRVVDASVLPFQVCGHLVSTLYAVAERAADLIKADAGRR
modifications: SIGNAL (1)..(19)
B2: D343N + S490C: modified GLD: SEQ ID NO: 1 with substitutions D343N, S490C (protein, listed as Aspergillus terreus)
chain: MLGKLSFLSALSLAVAAPLSNSTSAKYDYIVIGGGTSGLAVANRLSEDPNVNVLILEAGGSVWNNPNVTNVDGYGLAFGSDIDWQYQSVNQPYGGNLSQVLRAGKALGGTSTINGMAYTRAEDVQIDAWETIGNTGWTWKNLFPYYRKSENFTVPTKSQTSLGASYEAGAHGHEGPLDVAFTQIESNNLTTYLNRTFQGMGLPWTEDVNGGKMRGFNLYPSTVNLEEYVREDAARAYYWPYKSRPNLHVLLNTFANRIVWDGEAHDGHITASGVEITSRNGTVRVINAEKEVIVSAGALKSPAILELSGIGNPSVLDKHNIPVKVNLPTVGENLQDQVNSHMNASGNTSISGTKAVSYPDVYDVFGDEAESVAKQIRANLKQYAADTAKANGNIMKAADLERLFEVQYDLIFKGRVPIAEVLNYPGSATSVFAEFWALLPFARGSVHIGSSNPAEFPVINPNYFMLDWDAKSYVAVAKYIRRSFESYPLCSIVKESTPGYDVIPRNASEQSWKEWVFDKNYRSNFHPVGTAAMMPREIGGVVDERLNVYGTTNVRVVDASVLPFQVCGHLVSTLYAVAERAADLIKADAGRR
modifications: SIGNAL (1)..(19)
B3: D343E + L562H: modified GLD: SEQ ID NO: 1 with substitutions D343E, L562H (protein, listed as Aspergillus terreus)
chain: MLGKLSFLSALSLAVAAPLSNSTSAKYDYIVIGGGTSGLAVANRLSEDPNVNVLILEAGGSVWNNPNVTNVDGYGLAFGSDIDWQYQSVNQPYGGNLSQVLRAGKALGGTSTINGMAYTRAEDVQIDAWETIGNTGWTWKNLFPYYRKSENFTVPTKSQTSLGASYEAGAHGHEGPLDVAFTQIESNNLTTYLNRTFQGMGLPWTEDVNGGKMRGFNLYPSTVNLEEYVREDAARAYYWPYKSRPNLHVLLNTFANRIVWDGEAHDGHITASGVEITSRNGTVRVINAEKEVIVSAGALKSPAILELSGIGNPSVLDKHNIPVKVNLPTVGENLQDQVNSHMEASGNTSISGTKAVSYPDVYDVFGDEAESVAKQIRANLKQYAADTAKANGNIMKAADLERLFEVQYDLIFKGRVPIAEVLNYPGSATSVFAEFWALLPFARGSVHIGSSNPAEFPVINPNYFMLDWDAKSYVAVAKYIRRSFESYPLSSIVKESTPGYDVIPRNASEQSWKEWVFDKNYRSNFHPVGTAAMMPREIGGVVDERLNVYGTTNVRVVDASVHPFQVCGHLVSTLYAVAERAADLIKADAGRR
modifications: SIGNAL (1)..(19)
B4: D343N: modified GLD: SEQ ID NO: 1 with substitution D343N (protein, listed as Aspergillus terreus)
chain: MLGKLSFLSALSLAVAAPLSNSTSAKYDYIVIGGGTSGLAVANRLSEDPNVNVLILEAGGSVWNNPNVTNVDGYGLAFGSDIDWQYQSVNQPYGGNLSQVLRAGKALGGTSTINGMAYTRAEDVQIDAWETIGNTGWTWKNLFPYYRKSENFTVPTKSQTSLGASYEAGAHGHEGPLDVAFTQIESNNLTTYLNRTFQGMGLPWTEDVNGGKMRGFNLYPSTVNLEEYVREDAARAYYWPYKSRPNLHVLLNTFANRIVWDGEAHDGHITASGVEITSRNGTVRVINAEKEVIVSAGALKSPAILELSGIGNPSVLDKHNIPVKVNLPTVGENLQDQVNSHMNASGNTSISGTKAVSYPDVYDVFGDEAESVAKQIRANLKQYAADTAKANGNIMKAADLERLFEVQYDLIFKGRVPIAEVLNYPGSATSVFAEFWALLPFARGSVHIGSSNPAEFPVINPNYFMLDWDAKSYVAVAKYIRRSFESYPLSSIVKESTPGYDVIPRNASEQSWKEWVFDKNYRSNFHPVGTAAMMPREIGGVVDERLNVYGTTNVRVVDASVLPFQVCGHLVSTLYAVAERAADLIKADAGRR
modifications: SIGNAL (1)..(19)
B5: G426S + A578V: modified GLD: SEQ ID NO: 1 with substitutions G426S, A578V (protein, listed as Aspergillus terreus)
chain: MLGKLSFLSALSLAVAAPLSNSTSAKYDYIVIGGGTSGLAVANRLSEDPNVNVLILEAGGSVWNNPNVTNVDGYGLAFGSDIDWQYQSVNQPYGGNLSQVLRAGKALGGTSTINGMAYTRAEDVQIDAWETIGNTGWTWKNLFPYYRKSENFTVPTKSQTSLGASYEAGAHGHEGPLDVAFTQIESNNLTTYLNRTFQGMGLPWTEDVNGGKMRGFNLYPSTVNLEEYVREDAARAYYWPYKSRPNLHVLLNTFANRIVWDGEAHDGHITASGVEITSRNGTVRVINAEKEVIVSAGALKSPAILELSGIGNPSVLDKHNIPVKVNLPTVGENLQDQVNSHMDASGNTSISGTKAVSYPDVYDVFGDEAESVAKQIRANLKQYAADTAKANGNIMKAADLERLFEVQYDLIFKGRVPIAEVLNYPSSATSVFAEFWALLPFARGSVHIGSSNPAEFPVINPNYFMLDWDAKSYVAVAKYIRRSFESYPLSSIVKESTPGYDVIPRNASEQSWKEWVFDKNYRSNFHPVGTAAMMPREIGGVVDERLNVYGTTNVRVVDASVLPFQVCGHLVSTLYAVVERAADLIKADAGRR
modifications: SIGNAL (1)..(19)
B6: M342L + K354N: modified GLD: SEQ ID NO: 1 with substitutions M342L, K354N (protein, listed as Aspergillus terreus)
chain: MLGKLSFLSALSLAVAAPLSNSTSAKYDYIVIGGGTSGLAVANRLSEDPNVNVLILEAGGSVWNNPNVTNVDGYGLAFGSDIDWQYQSVNQPYGGNLSQVLRAGKALGGTSTINGMAYTRAEDVQIDAWETIGNTGWTWKNLFPYYRKSENFTVPTKSQTSLGASYEAGAHGHEGPLDVAFTQIESNNLTTYLNRTFQGMGLPWTEDVNGGKMRGFNLYPSTVNLEEYVREDAARAYYWPYKSRPNLHVLLNTFANRIVWDGEAHDGHITASGVEITSRNGTVRVINAEKEVIVSAGALKSPAILELSGIGNPSVLDKHNIPVKVNLPTVGENLQDQVNSHLDASGNTSISGTNAVSYPDVYDVFGDEAESVAKQIRANLKQYAADTAKANGNIMKAADLERLFEVQYDLIFKGRVPIAEVLNYPGSATSVFAEFWALLPFARGSVHIGSSNPAEFPVINPNYFMLDWDAKSYVAVAKYIRRSFESYPLSSIVKESTPGYDVIPRNASEQSWKEWVFDKNYRSNFHPVGTAAMMPREIGGVVDERLNVYGTTNVRVVDASVLPFQVCGHLVSTLYAVAERAADLIKADAGRR
modifications: SIGNAL (1)..(19)

The data set in a line: Relative enzymatic activity of GLD (DCIP/1-m-PMS, plate reader, yeast culture supernatant) with 1,10-phenanthroline present. It counts as biochemical. The settings on record: random-mutation mutants, sample value with inhibitor at 1 mM / blank value, inhibitor not named in Table 1. Here is the method: The susceptibility defined in the present specification is evaluated in terms of a relative activity that is determined in a system wherein the inhibitor coexists or not. The relative activity is derived from a relative value (%) of an enzymatic activity (a sample value) obtained with the addition of the inhibitor in the determination of the enzymatic activity described in the present specification as compared with an enzymatic activity (a blank value) as “100%” obtained without the addition of the inhibitor in the same determination. Thus, the higher the relative activity is, the less the susceptibility to the inhibitor is (or the more the susceptibility to the inhibitor is reduced), vice versa.
The enzymatic activity is determined in the following manner in Examples 3 and 6 wherein a plate reader (Japan Molecular Device Corporation, SpectraMax Plus384) is used. Thus, culture supernatant that had been diluted in advance with an appropriate magnification is added to a 96-well microplate with an amount of 100 μl per well. A reagent for the determination of the enzymatic activity comprising phosphate buffer (pH 7.0), 1.0 M D-glucose, 3 mM DCIP, 3 mM 1-m-PMS and methanol with a volume ratio of 0.1:1:0.14:0.2:0.06 is added to the 96-well microplate with an amount of 100 μl per well, and a change in the absorbance of DCIP at 600 nm (ΔABS/min) is then determined. The enzymatic activity can be calculated by conversion in proportion to a change in the absorbance of an enzyme solution for which the enzymatic activity has already been known by the above-mentioned activity determination procedure using the spectrophotometer.
In the following examples, a value of the enzymatic activity determined by the spectrometer or plate reader using the above reagent composition is considered as a blank value. On the other hand, a sample value is determined using a methanol solution comprising the inhibitor such as 1,10-phenanthroline or proflavin hydrochloride at a final concentration of 1 mM instead of the methanol. Enzymatic activity (unit/mL)=(−ΔABS/16.3)×3.0/0.05×(Dilution ratio of enzyme) [Equation 1]
Into each well of a 96-well microplate (manufactured by Nunc, Inc.), a YPD medium containing 125 μL of 1.0% (w/v) yeast extract (manufactured by BD), 2.0% (w/v) tryptone (manufactured by BD), 2.0% (w/v) glucose (manufactured by Wako Pure Chemical Industries, Ltd.) was dispensed, and the transformant colonies obtained in Example 2 were inoculated thereinto one by one.
After shaking culture at 30° C. and 1,000 rpm for 24 hours, the culture mixture was centrifuged and the supernatant was collected.
According to the above-mentioned method for the determination of enzymatic activity, a blank value and a sample value were determined using a plate reader, and the relative activity (%) was obtained by dividing the sample value by the blank value.
Regarding B1, the “Relative Activity” value was determined as 52.2%. With B2, the “Relative Activity” value is 61.8% and 71.1%. The figure for B3 is 51.8%. As for B4, the figure is 65.2%; as for B5, 65.7%. As for B6, the figure is 69.8%.
